The target of the test is T1, Sly1 (wild-type) (S. cerevisiae, UniProt P22213 1-666).
T1 sequence: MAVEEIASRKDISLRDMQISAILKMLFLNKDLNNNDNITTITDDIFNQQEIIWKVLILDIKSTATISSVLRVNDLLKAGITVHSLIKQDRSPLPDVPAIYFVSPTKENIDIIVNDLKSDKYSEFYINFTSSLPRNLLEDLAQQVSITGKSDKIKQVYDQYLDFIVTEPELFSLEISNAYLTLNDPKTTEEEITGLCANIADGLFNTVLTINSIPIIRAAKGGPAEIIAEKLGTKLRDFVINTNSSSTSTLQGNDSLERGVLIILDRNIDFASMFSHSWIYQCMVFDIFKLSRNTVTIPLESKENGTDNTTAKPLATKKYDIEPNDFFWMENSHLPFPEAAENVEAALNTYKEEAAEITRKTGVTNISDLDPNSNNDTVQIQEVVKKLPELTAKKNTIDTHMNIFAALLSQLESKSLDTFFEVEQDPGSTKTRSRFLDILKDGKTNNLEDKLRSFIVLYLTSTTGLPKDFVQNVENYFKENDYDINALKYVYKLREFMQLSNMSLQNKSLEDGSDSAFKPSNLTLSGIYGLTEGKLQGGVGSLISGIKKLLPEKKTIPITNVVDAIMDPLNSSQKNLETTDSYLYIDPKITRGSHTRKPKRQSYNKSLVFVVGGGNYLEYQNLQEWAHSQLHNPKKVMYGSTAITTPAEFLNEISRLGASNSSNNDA
Kind of test: pull-down.

B1: GST-Sed5 cytoplasmic domain (domain or fragment, S. cerevisiae, UniProt Q01590 1-319, looked up)
chain: MNIKDRTSEFQQSVLSYKKRNKNFREQQRERLQEKESENFANNTTGNGKSVSEFQKKASGIAHEISSTAQLLSKLAVLAKRKPMFNDNPVEIAELSFLIKRKIYAIEQSLVQLSQLKKTDVNGNTSNQSSKQPSAVQHSKNVVNLLNTQMKNISGSFKDVLEERQRLEMANKDRWQKLTTDTGHAPADDQTQSNHAADLTTYNNSNPFMTSLLDESSEKNNNSSNQGELSFPQNDSQLMLMEEGQLSNNVYLQERNRAVETIESTIQEVGNLFQQLASMVQEQGEVIQRIDANVDDIDLNISGAQRELLKYFDRIKSNR
In the case of B1, the binding result is on record as “binds”.

The record behind these values is PMC10943277 (The Journal of Cell Biology, 2024).
